Measurements: PMC7885266 (Chemical Science, 2020)
Several values for one entry are separate records, joined by “and”; a condition that tells them apart may be missing. Equal values may be shown once. One block for each binder: values may come before it.

B1: 4TBP-CTPR8 (designed binder)
chain: AEAWYNLGNAYYKQGDYQKAIEYYQKALELDPNNREAGDGEEDPRSAEAWYNLGNAYYKQGDYQKAIEYYQKALELDPRSAEAWYNLGNAYYKQGDYQKAIEYYQKALELDPNNREAGDGEEDPRSAEAWYNLGNAYYKQGDYQKAIEYYQKALELDPRSAEAWYNLGNAYYKQGDYQKAIEYYQKALELDPNNREAGDGEEDPRSAEAWYNLGNAYYKQGDYQKAIEYYQKALELDPRSAEAWYNLGNAYYKQGDYQKAIEYYQKALELDPNNREAGDGEEDPRSAEAWYNLGNAYYKQGDYQKAIEYYQKALELDPRS
B2: 2TBP-CTPR4 (designed binder)
chain: AEAWYNLGNAYYKQGDYQKAIEYYQKALELDPNNREAGDGEEDPRSAEAWYNLGNAYYKQGDYQKAIEYYQKALELDPRSAEAWYNLGNAYYKQGDYQKAIEYYQKALELDPNNREAGDGEEDPRSAEAWYNLGNAYYKQGDYQKAIEYYQKALELDPRS
B4: 1TBP-CTPR2 (designed binder)
chain: AEAWYNLGNAYYKQGDYQKAIEYYQKALELDPNNREAGDGEEDPRSAEAWYNLGNAYYKQGDYQKAIEYYQKALELDPRS
B5: Tankyrase-2 Ankyrin Repeat Cluster 4 (residues 488-649) (domain or fragment, human, UniProt Q9H2K2 488-649, looked up)
chain: GNSEADRQLLEAAKAGDVETVKKLCTVQSVNCRDIEGRQSTPLHFAAGYNRVSVVEYLLQHGADVHAKDKGGLVPLHNACSYGHYEVAELLVKHGAVVNVADLWKFTPLHEAAAKGKYEICKLLLQHGADPTKKNRDGNTPLDLVKDGDTDIQDLLRGDAAL
notes: human tankyrase 2, fourth ankyrin-repeat cluster (ARC4), residues 488-649; also called hTNKS2 ARC4; TNKS2 ARC4; source: E. coli, purified (IMAC, SEC; His tag removed with thrombin)

Legend:
Settings in all cases: both partners purified
[1] = target: B5; assay: ITC; TNKS2 ARC4 (500 μM) titrated into the cell holding one nTBP-CTPR2n construct (50, 25, 16.6 or 12.5 μM); 25 °C; 10 mM sodium phosphate, 150 mM NaCl, 0.5 mM TCEP, pH 7.4; OneSite model
3TBP-CTPR6 [2] = target: T1, 3TBP-CTPR6; assay: co-sedimentation; co-precipitation assay: 10 μM hTNKS2 ARC1–3 mixed with an equal volume of CTPR protein (fixed or increasing concentrations) in 50 mM Tris-HCl, 150 mM NaCl, 0.5 mM TCEP, pH 7.3; 1 h at room temperature, 20 000g 30 min; supernatant and pellet on SDS-PAGE, band densities give the stoichiometry in the pellet
T1 chain: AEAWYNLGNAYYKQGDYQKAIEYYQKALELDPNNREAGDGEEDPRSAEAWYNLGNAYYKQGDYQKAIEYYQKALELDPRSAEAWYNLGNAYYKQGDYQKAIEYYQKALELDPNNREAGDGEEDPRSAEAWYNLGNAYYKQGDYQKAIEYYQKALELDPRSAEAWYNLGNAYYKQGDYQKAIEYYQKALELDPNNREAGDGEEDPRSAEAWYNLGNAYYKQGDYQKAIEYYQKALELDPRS

4TBP-CTPR8 = target: B1; assay: ITC; TNKS2 ARC4 (500 μM) titrated into the cell holding one nTBP-CTPR2n construct (50, 25, 16.6 or 12.5 μM); 25 °C; 10 mM sodium phosphate, 150 mM NaCl, 0.5 mM TCEP, pH 7.4; OneSite model
3TBP-CTPR6 [3] = target: T1, 3TBP-CTPR6; assay: as above
1TBP-CTPR2 = target: B4; assay: as above
2TBP-CTPR4 = target: B2; assay: as above

Binder: B1
- Kd [1]: 13.6 µM and 15.5 µM

Binder: B2
- Kd [1]: 11.9 µM and 18.6 µM

- stoichiometry N (3TBP-CTPR6 [2]): 1
B3: Tankyrase-2 Ankyrin Repeat Clusters 1-3 (residues 2-485) (domain or fragment, human, UniProt Q9H2K2 2-485, looked up)
chain: SGRRCAGGGAACASAAAEAVEPAARELFEACRNGDVERVKRLVTPEKVNSRDTAGRKSTPLHFAAGFGRKDVVEYLLQNGANVQARDDGGLIPLHNACSFGHAEVVNLLLRHGADPNARDNWNYTPLHEAAIKGKIDVCIVLLQHGAEPTIRNTDGRTALDLADPSAKAVLTGEYKKDELLESARSGNEEKMMALLTPLNVNCHASDGRKSTPLHLAAGYNRVKIVQLLLQHGADVHAKDKGDLVPLHNACSYGHYEVTELLVKHGACVNAMDLWQFTPLHEAASKNRVEVCSLLLSYGADPTLLNCHNKSAIDLAPTPQLKERLAYEFKGHSLLQAAREADVTRIKKHLSLEMVNFKHPQTHETALHCAAASPYPKRKQICELLLRKGANINEKTKEFLTPLHVASEKAHNDVVEVVVKHEAKVNALDNLGQTSLHRAAYCGHLQTCRLLLSYGCDPNIISLQGFTALQMGNENVQQLLQEGI
notes: human tankyrase 2, ankyrin-repeat clusters 1-3, residues 2-485; also called hTNKS2 ARC1–3; source: E. coli, purified (IMAC, SEC; His tag removed with thrombin)

Binder: B4
- Kd [1]: 14.7 µM and 12.8 µM

Binder: B5
- stoichiometry N (4TBP-CTPR8): 3.38 and 2.91
- stoichiometry N (3TBP-CTPR6 [3]): 2.77 and 2.72
- stoichiometry N (1TBP-CTPR2): 1.01 and 0.9
- stoichiometry N (2TBP-CTPR4): 2.18 and 2.05
